Measurements from patent CN112646029A.

Target: T1, mBDNF (成熟脑源性神经营养因子, mature brain-derived neurotrophic factor) (Helarctos malayanus (Malayan sun bear) (Ursus malayanus)) (UniProt O18753)
T1 sequence: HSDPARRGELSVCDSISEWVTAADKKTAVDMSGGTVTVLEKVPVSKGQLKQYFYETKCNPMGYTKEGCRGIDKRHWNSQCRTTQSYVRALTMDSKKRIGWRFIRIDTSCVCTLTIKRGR
Assay: ELISA; antigen coated on the plate, purified antibody added, secondary antibody, TMB, OD450

lowest antigen concentration at which the antigen was detected: 1.95 ng/mL
B1: 抗mBDNF抗体 (anti-mature brain-derived neurotrophic factor antibody) (antibody, V domains shown)
VH: EVKLEESGGGLVQPGGSMKLSCVASGFTFNNYWMNWVRQSPGKGLEWVAQIRLDSDNYATHYAESVIGRFTISSDDSKSSVYLQMNNLRAEDTGIYYCTAFDYAMDYWGQGTSVTVSS
VL: DIVMTQSHKFMSTSVGDRVSITCKASQDVGSAVAWYQQKPGQSPKLLIYWASTRHTGVPNRFTGSGSGTDFTLTISNVHSEDLADYFCQQYSSYPLTFGSRTKLEIK
